In patent publication US20120171723A1 (published 2012):
Several values for one entry are separate records, joined by “and”; a condition that tells them apart may be missing. Identical values can stand only once.

Key:
Experiment in all cases: cell-based or functional assay
[1] = molecular target: FGFR3α-IIIc expressed on transfected BAF3 cells
[2] = molecular target: FGFR1α-IIIb expressed on transfected BAF3 cells
[3] = molecular target: FGFR3α-IIIb expressed on transfected BAF3 cells
[4] = molecular target: FGFR3α-IIIc expressed on transfected BAF3 cells; remark: listed apart in the source
[5] = molecular target: FGFR2α-IIIb expressed on transfected BAF3 cells
[6] = molecular target: FGFR2α-IIIc expressed on transfected BAF3 cells
[7] = molecular target: FGFR1α-IIIc expressed on transfected BAF3 cells

B1: human zFGF5 (FGF homolog polypeptide) (ligand)
chain: EENVDFRIHVENQTRARDDVSRKQLRLYQLYSRTSGKHIQVLGRRISARGEDGDKYAQLLVETDTFGSQVRIKGKETEFYLCMNRKGKLVGKPDGTSKECVFIEKVLENNYTALMSAKYSGWYVGFTKKGRPRKGPKTRENQQDVHFMKRYPKGQPELQKPFKYTTVTKRSRRIRPTHPA
EC50 of the cell proliferative response [1]: ~1 ng/mL and ~2 ng/mL
Alamar Blue Units (proliferation of BAF3 cells expressing the receptor) at 1.6 ng/ml zFGF5 [2]: 0 Alamar Blue Units
Alamar Blue Units (proliferation of BAF3 cells expressing the receptor) at 3.1 ng/ml zFGF5 [2]: 1.7 Alamar Blue Units
Alamar Blue Units (proliferation of BAF3 cells expressing the receptor) at 6.2 ng/ml zFGF5 [2]: 1.3 Alamar Blue Units
Alamar Blue Units (proliferation of BAF3 cells expressing the receptor) at 12.5 ng/ml zFGF5 [2]: 0 Alamar Blue Units
Alamar Blue Units (proliferation of BAF3 cells expressing the receptor) at 25 ng/ml zFGF5 [2]: 10.9 Alamar Blue Units
Alamar Blue Units (proliferation of BAF3 cells expressing the receptor) at 50 ng/ml zFGF5 [2]: 0 Alamar Blue Units
Alamar Blue Units (proliferation of BAF3 cells expressing the receptor) at 100 ng/ml zFGF5 [2]: 0 Alamar Blue Units
Alamar Blue Units (proliferation of BAF3 cells expressing the receptor) at 200 ng/ml zFGF5 [2]: 0 Alamar Blue Units
Alamar Blue Units (proliferation of BAF3 cells expressing the receptor) at 1.6 ng/ml zFGF5 [3]: 0 Alamar Blue Units
Alamar Blue Units (proliferation of BAF3 cells expressing the receptor) at 3.1 ng/ml zFGF5 [3]: 0 Alamar Blue Units
Alamar Blue Units (proliferation of BAF3 cells expressing the receptor) at 6.2 ng/ml zFGF5 [3]: 0 Alamar Blue Units
Alamar Blue Units (proliferation of BAF3 cells expressing the receptor) at 12.5 ng/ml zFGF5 [3]: 0 Alamar Blue Units
Alamar Blue Units (proliferation of BAF3 cells expressing the receptor) at 25 ng/ml zFGF5 [3]: 1.4 Alamar Blue Units
Alamar Blue Units (proliferation of BAF3 cells expressing the receptor) at 50 ng/ml zFGF5 [3]: 19 Alamar Blue Units
Alamar Blue Units (proliferation of BAF3 cells expressing the receptor) at 100 ng/ml zFGF5 [3]: 189 Alamar Blue Units
Alamar Blue Units (proliferation of BAF3 cells expressing the receptor) at 200 ng/ml zFGF5 [3]: 472 Alamar Blue Units
Alamar Blue Units (proliferation of BAF3 cells expressing the receptor) at 1.6 ng/ml zFGF5 [4]: 1400 Alamar Blue Units
Alamar Blue Units (proliferation of BAF3 cells expressing the receptor) at 3.1 ng/ml zFGF5 [4]: 2000 Alamar Blue Units
Alamar Blue Units (proliferation of BAF3 cells expressing the receptor) at 6.2 ng/ml zFGF5 [4]: 2580 Alamar Blue Units
Alamar Blue Units (proliferation of BAF3 cells expressing the receptor) at 12.5 ng/ml zFGF5 [4]: 3200 Alamar Blue Units
Alamar Blue Units (proliferation of BAF3 cells expressing the receptor) at 25 ng/ml zFGF5 [4]: 3760 Alamar Blue Units
Alamar Blue Units (proliferation of BAF3 cells expressing the receptor) at 50 ng/ml zFGF5 [4]: 3960 Alamar Blue Units
Alamar Blue Units (proliferation of BAF3 cells expressing the receptor) at 100 ng/ml zFGF5 [4]: 4120 Alamar Blue Units
Alamar Blue Units (proliferation of BAF3 cells expressing the receptor) at 200 ng/ml zFGF5 [4]: 4200 Alamar Blue Units
Alamar Blue Units (proliferation of BAF3 cells expressing the receptor) at 1.6 ng/ml zFGF5 [5]: 0.2 Alamar Blue Units
Alamar Blue Units (proliferation of BAF3 cells expressing the receptor) at 3.1 ng/ml zFGF5 [5]: 0.06 Alamar Blue Units
Alamar Blue Units (proliferation of BAF3 cells expressing the receptor) at 6.2 ng/ml zFGF5 [5]: 0 Alamar Blue Units
Alamar Blue Units (proliferation of BAF3 cells expressing the receptor) at 12.5 ng/ml zFGF5 [5]: 0.4 Alamar Blue Units
Alamar Blue Units (proliferation of BAF3 cells expressing the receptor) at 25 ng/ml zFGF5 [5]: 0.2 Alamar Blue Units
Alamar Blue Units (proliferation of BAF3 cells expressing the receptor) at 50 ng/ml zFGF5 [5]: 0.5 Alamar Blue Units
Alamar Blue Units (proliferation of BAF3 cells expressing the receptor) at 100 ng/ml zFGF5 [5]: 1.3 Alamar Blue Units
Alamar Blue Units (proliferation of BAF3 cells expressing the receptor) at 200 ng/ml zFGF5 [5]: 1.3 Alamar Blue Units
Alamar Blue Units (proliferation of BAF3 cells expressing the receptor) at 1.6 ng/ml zFGF5 [6]: 241 Alamar Blue Units
Alamar Blue Units (proliferation of BAF3 cells expressing the receptor) at 3.1 ng/ml zFGF5 [6]: 480 Alamar Blue Units
Alamar Blue Units (proliferation of BAF3 cells expressing the receptor) at 6.2 ng/ml zFGF5 [6]: 715 Alamar Blue Units
Alamar Blue Units (proliferation of BAF3 cells expressing the receptor) at 12.5 ng/ml zFGF5 [6]: 977 Alamar Blue Units
Alamar Blue Units (proliferation of BAF3 cells expressing the receptor) at 25 ng/ml zFGF5 [6]: 1310 Alamar Blue Units
Alamar Blue Units (proliferation of BAF3 cells expressing the receptor) at 50 ng/ml zFGF5 [6]: 1520 Alamar Blue Units
Alamar Blue Units (proliferation of BAF3 cells expressing the receptor) at 100 ng/ml zFGF5 [6]: 1720 Alamar Blue Units
Alamar Blue Units (proliferation of BAF3 cells expressing the receptor) at 200 ng/ml zFGF5 [6]: 1790 Alamar Blue Units
Alamar Blue Units (proliferation of BAF3 cells expressing the receptor) at 1.6 ng/ml zFGF5 [7]: 2.6 Alamar Blue Units
Alamar Blue Units (proliferation of BAF3 cells expressing the receptor) at 3.1 ng/ml zFGF5 [7]: 4.2 Alamar Blue Units
Alamar Blue Units (proliferation of BAF3 cells expressing the receptor) at 6.2 ng/ml zFGF5 [7]: 14.2 Alamar Blue Units
Alamar Blue Units (proliferation of BAF3 cells expressing the receptor) at 12.5 ng/ml zFGF5 [7]: 29.9 Alamar Blue Units
Alamar Blue Units (proliferation of BAF3 cells expressing the receptor) at 25 ng/ml zFGF5 [7]: 86 Alamar Blue Units
Alamar Blue Units (proliferation of BAF3 cells expressing the receptor) at 50 ng/ml zFGF5 [7]: 224 Alamar Blue Units
Alamar Blue Units (proliferation of BAF3 cells expressing the receptor) at 100 ng/ml zFGF5 [7]: 488 Alamar Blue Units
Alamar Blue Units (proliferation of BAF3 cells expressing the receptor) at 200 ng/ml zFGF5 [7]: 912 Alamar Blue Units
